Results published in US20150344570A1 (published 2015).
Substitutions are numbered along the chain they refer to. Numbers in names are those of the source.

Tests used:
FcgRIIb [1] = biological target: T1, FcgRIIb (human, UniProt P31994 43-217); experiment: SPR (Biacore), antibody captured, FcgR as analyte
T1 construct: extracellular domain; also called FcγRIIb; CD32B
T1 sequence (looked up): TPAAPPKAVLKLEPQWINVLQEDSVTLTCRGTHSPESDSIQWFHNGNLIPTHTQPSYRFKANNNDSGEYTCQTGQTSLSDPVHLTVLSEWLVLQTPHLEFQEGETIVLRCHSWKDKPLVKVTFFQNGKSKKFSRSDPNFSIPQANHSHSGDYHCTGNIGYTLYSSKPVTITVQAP
Procedure: (§1) Analysis of interaction between objective antibody and the FcγR was carried out using Biacore T100 (GE Healthcare), Biacore T200, Biacore A100, and Biacore 4000. HBS-EP+ (GE Healthcare) was used as the running buffer, and the measurement temperature was set to 25° C. Chips produced by immobilizing the antigen peptide by the amine coupling method to a Series S sensor Chip CM5 (GE Healthcare), chips produced by allowing preliminarily biotinylated antigen peptides to interact with and immobilize onto a Series S Sensor Chip SA (certified) (GE Healthcare), chips produced by immobilizing Protein L (ACTIGEN, BioVision) to Series S Sencor Chip CM5 (GE Healthcare), or chips produced by immobilizing Protein A/G (Thermo Scientific) to Series S Sencor Chip CM5 (GE Healthcare) were used. Antibodies of interest were captured onto these chips, and allowed to interact to each FcγR diluted with running buffer. To regenerate and repeatedly use the chip, the antibodies captured onto the chip were washed off by reacting 10 mM glycine-HCl, pH 1.5.

FcgRIa [2] = biological target: T2, FcgRIa (human, UniProt P12314 16-292); experiment: SPR (Biacore), antibody captured, FcgR as analyte
T2 construct: extracellular domain; also called FcγRIa; FcγRI
Procedure: as §1
T2 sequence (P12314 16-292): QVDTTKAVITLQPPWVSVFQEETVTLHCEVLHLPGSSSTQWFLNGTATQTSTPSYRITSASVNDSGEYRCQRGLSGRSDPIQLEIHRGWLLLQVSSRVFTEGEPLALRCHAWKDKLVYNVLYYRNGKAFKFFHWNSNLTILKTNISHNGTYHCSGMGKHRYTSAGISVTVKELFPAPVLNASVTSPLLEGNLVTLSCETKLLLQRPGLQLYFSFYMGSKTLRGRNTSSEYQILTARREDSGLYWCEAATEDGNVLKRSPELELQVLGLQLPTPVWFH

FcgRIIa R = biological target: T3, FcgRIIa R (human, UniProt P12318 34-217); experiment: SPR (Biacore), antibody captured, FcgR as analyte
T3 construct: extracellular domain; also called FcγRIIa R; FcγRIIa type R
T3 sequence (looked up): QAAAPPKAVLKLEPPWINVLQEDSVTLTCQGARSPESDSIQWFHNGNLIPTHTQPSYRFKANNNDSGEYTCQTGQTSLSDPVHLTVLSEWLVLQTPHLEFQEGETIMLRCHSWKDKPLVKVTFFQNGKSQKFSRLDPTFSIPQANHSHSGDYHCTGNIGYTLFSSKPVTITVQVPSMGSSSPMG
Procedure: as §1

FcgRIIIa V = biological target: T4, FcgRIIIa V (human, UniProt P08637 17-208); experiment: SPR (Biacore), antibody captured, FcgR as analyte
T4 construct: extracellular domain; polymorphic site made after J. Clin. Invest; also called FcγRIIIa V
T4 sequence (P08637 17-208 F176V limits assumed): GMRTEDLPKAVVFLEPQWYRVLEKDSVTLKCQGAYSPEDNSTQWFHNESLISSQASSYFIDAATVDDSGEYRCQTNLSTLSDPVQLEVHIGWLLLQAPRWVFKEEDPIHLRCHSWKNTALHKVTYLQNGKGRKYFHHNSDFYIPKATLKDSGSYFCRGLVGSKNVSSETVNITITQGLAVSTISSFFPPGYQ
Procedure: as §1

FcgRIIa H = biological target: T5, FcgRIIa H (human, UniProt P12318 34-217); experiment: SPR (Biacore), antibody captured, FcgR as analyte
T5 construct: extracellular domain; also called FcγRIIa H; FcγRIIa type H
T5 sequence (looked up): T3 sequence (looked up) with R134H
Procedure: as §1

FcgRIIIa F = biological target: T6, FcgRIIIa F (human, UniProt P08637 17-208); experiment: SPR (Biacore), antibody captured, FcgR as analyte
T6 construct: extracellular domain; polymorphic site made after J. Clin. Invest; also called FcγRIIIa F
T6 sequence (P08637 17-208): as the sequence (P08637 17-208 F176V limits assumed) above, with V160F counted along it
Procedure: as §1

FcgRIIaR [3] = biological target: T7, FcgRIIaR (human, UniProt P12318 34-217); experiment: SPR (Biacore), antibody captured on chip, FcgR extracellular domain as analyte
T7 construct: extracellular domain; also called FcγRIIa R; FcgRIIa type R; not shown: His tag attached to the C terminus
T7 sequence (looked up): T3 sequence (looked up)
Procedure: (§2) Specifically, H240-Kn204 resulting from the introduction of L234Y/K290Y/Y296W into H240-Kn033, H240-Hl211 resulting from the introduction of S239D/A330M/K334V into H240-Hl033, H240-Kn205 resulting from the introduction of L234Y/Y296W/S298C into H240-Kn033, and H240-Hl212 resulting from the introduction of S239D/K334V into H240-Hl033 were produced according to the method of Reference Example 1. H240-Kn204/H240-Hl211/L73-k0 and H240-Kn205/H240-Hl212/L73-k0 were prepared according to the method of Reference Example 1, by combining H240-Kn204 as one of the H chains and L73-k0 as the L chains with H240-Hl211 as the other H chain, and by combining H240-Kn205 as one of the H chains and L73-k0 as the L chains with H240-Hl212 as the other H chain, and then expressing them. The binding of the prepared variants to FcgRIa, FcgRIIaR, FcgRIIaH, FcgRIIb, FcgRIIIaF, and FcgRIIIaV was measured according to the method of Reference Example 8.
as §1

FcgRIIIaF = biological target: T8, FcgRIIIaF (human, UniProt P08637 17-208); experiment: as above
T8 construct: extracellular domain; also called FcγRIIIa F; 3aF; not shown: His tag attached to the C terminus
T8 sequence (P08637 17-208): as the sequence (P08637 17-208 F176V limits assumed) above, with V160F counted along it
Procedure: as §2, §1

FcgRIIaH [4] = biological target: T9, FcgRIIaH (human, UniProt P12318 34-217); experiment: as above
T9 construct: extracellular domain; also called FcγRIIa H; FcgRIIa type H; not shown: His tag attached to the C terminus
T9 sequence (looked up): T3 sequence (looked up) with R134H
Procedure: as §2, §1

FcgRIIb [5] = biological target: T10, FcgRIIb (human, UniProt P31994 43-217); experiment: as above
T10 construct: extracellular domain; also called FcγRIIb; 2b; not shown: His tag attached to the C terminus
T10 sequence (looked up): T1 sequence (looked up)
Procedure: as §2, §1

FcgRIa [6] = biological target: T11, FcgRIa (human, UniProt P12314 16-292); experiment: as above
T11 construct: extracellular domain; also called FcγRIa; FcγRI (CD64); not shown: His tag attached to the C terminus
Procedure: as §2, §1
T11 sequence (P12314 16-292): as the sequence (P12314 16-292) above

FcgRIIb [7] = biological target: T12, FcgRIIb (human, UniProt P31994 43-217); experiment: SPR (Biacore); KD of IL6R-B3/IL6R-L divided by KD of the sample
T12 construct: extracellular domain; also called FcγRIIb; CD32B; not shown: His tag attached to the C terminus
T12 sequence (looked up): T1 sequence (looked up)

FcgRIIaH [8] = biological target: T13, FcgRIIaH (human, UniProt P12318 34-217); experiment: as above
T13 construct: extracellular domain; Allotype H131; also called FcγRIIa H; FcgRIIa type H; not shown: His tag attached to the C terminus
T13 sequence (looked up): T3 sequence (looked up) with R134H

FcgRIIaR [9] = biological target: T14, FcgRIIaR (human, UniProt P12318 34-217); experiment: as above
T14 construct: extracellular domain; Allotype R131; also called FcγRIIa R; FcgRIIa type R; not shown: His tag attached to the C terminus
T14 sequence (looked up): T3 sequence (looked up)

B1: H240-Kn061/H240-Hl071/L73-k0 (antibody, human IgG1, kappa)
heavy 1: QDQLVQSGAEVKKPGASVKVSCKASGFNIKDTYIQWVRQAPGQGLEWMGRIDPLRKQTKYREKFEGRVTITADTSTNTAYMELSSLRSEDTAVYYCVRSGREFDYWGQGTLVTVSSASTKGPSVFPLAPSSKSTSGGTAALGCLVKDYFPEPVTVSWNSGALTSGVHTFPAVLQSSGLYSLSSVVTVPSSSLGTQTYICNVNHKPSNTKVDKKVEPKSCDKTHTCPPCPAPEYYWGPSVFLFPPKPKDTLMISRTPEVTCVVVDVSDEDPEVKFNWYVDGVEVHNAKTKPREEQYNATYRVVSVLTVLHQDWLNGKEYKCKVSNKALPAPIEKTISKAKGQPREPQVCTLPPSRDELTKNQVSLWCLVKGFYPSDIAVEWESNGQPENNYKTTPPVLDSDGSFFLYSKLTVDKSRWQQGNVFSCSVMHEALHNHYTQKSLSLSP
heavy 2: QDQLVQSGAEVKKPGASVKVSCKASGFNIKDTYIQWVRQAPGQGLEWMGRIDPLRKQTKYREKFEGRVTITADTSTNTAYMELSSLRSEDTAVYYCVRSGREFDYWGQGTLVTVSSASTKGPSVFPLAPSSKSTSGGTAALGCLVKDYFPEPVTVSWNSGALTSGVHTFPAVLQSSGLYSLSSVVTVPSSSLGTQTYICNVNHKPSNTKVDKKVEPKSCDKTHTCPPCPAPELLGGPSVFLFPPKPKDTLMISRTPEVTCVVVDVSHEDPEVKFNWYVDGVEVHNAKTKPREEQYNSTYRVVSVLTVLHQDWLNGKEYKCKVSNDALPMPIEETISKAKGQPREPQVYTLPPSRCELTKNQVSLSCAVKGFYPSDIAVEWESNGQPENNYKTTPPVLDSDGSFFLVSKLTVDKSRWQQGNVFSCSVMHEALHNHYTQKSLSLSP
light: DIQMTQSPSSLSASVGDRVTITCRASQDIHKYIAWYQQKPGQAPRLLIQYTSTLQPGVPSRFSGSGSGTDYTFTISSLQPEDIATYYCLQYEQLRTFGGGTKVEIKRTVAAPSVFIFPPSDEQLKSGTASVVCLLNNFYPREAKVQWKVDNALQSGNSQESVTEQDSKDSTYSLSSTLTLSKADYEKHKVYACEVTHQGLSSPVTKSFNRGEC
notes: Heterodimerized: L234Y/L235Y/G236W/H268D/S298A in the knob chain, K326D/A330M/K334E in the hole chain
For B1, the Kd (FcgRIIb [1]) was 1200 nM, the Kd (FcgRIa [2]) was 0.14 nM and the Kd (FcgRIIa R) was 350 nM. For the same binder, the Kd (FcgRIIIa V) was 1.8 nM, the Kd (FcgRIIa H) was 280 nM and the Kd (FcgRIIIa F) was 5.1 nM.

B2: H240-Kn125/H240-Hl076/L73-k0 (antibody, human IgG1, kappa)
heavy 1: B1 heavy 1 with Y234Q, S238M, D269E
heavy 2: B1 heavy 2 with D269E
light: B1 light
With B2 the Kd (FcgRIIaR [3]) was 420 nM, the Kd (FcgRIIIaF) was 1.3 nM and the Kd (FcgRIIaH [4]) was 140 nM. It also gave a Kd (FcgRIIb [5]) of 3900 nM and a Kd (FcgRIa [6]) of 0.066 nM.

B3: IL6R-BP253/IL6R-L (antibody, human IgG1, kappa)
heavy: QVQLQESGPGLVKPSETLSLTCAVSGHSISHDHAWSWVRQPPGEGLEWIGFISYSGITNYNPSLQGRVTISRDNSKNTLYLQMNSLRAEDTAVYYCARSLARTTAMDYWGEGTLVTVSSASTKGPSVFPLAPSSKSTSGGTAALGCLVKDYFPEPVTVSWNSGALTSGVHTFPAVLQSSGLYSLSSVVTVPSSSLGTQTYICNVNHKPSNTKVDKKVEPKSCDKTHTCPPCPAPELLGGPSVFLFPPKPKDTLMISRTPEVTCVVVDVEHEDPEVKFNWYVDGVEVHNAKTKPREEQYNSTYRVVSVLTVLHQDWLNGKEYKCKVSNKAFPAPIEKTISKAKGQPREPQVYTLPPSRDELTKNQVSLTCLVKGFYPSDIAVEWESNGQPENNYKTTPPVLDSDGSFFLYSKLTVDKSRWQQGNVFSCSVMHEALHNHYTQESLSLSP
light: not shown
notes: Homodimer
In the case of B3, the “relative KD” value (FcgRIIb [7]) is reported as 349, the “relative KD” value (FcgRIIaH [8]) is reported as 0.9 and the “relative KD” value (FcgRIIaR [9]) is reported as 480.
